First the molecules themselves.
B1: COX4I1 (parent)
chain: VAHVKHLSASQKALKEKEKASWSS
B2: SMTNL2 (parent)
chain: AFTMAENLANCERLIEVEDMMVMG

The results in this text go back to the supplement of paper PMC10567573.
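Also: lentivirally expressed fusions sorted by FACS into six bins by GFP to DsRed ratio, PSI derived from sequencing read proportions per bin multiplied by bin number.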

Variants of B1 are the subject of one data set. Description: protein stability index of a GFP-peptide fusion (GPS, HEK-293T) (PSI 1-6); higher = more stable. Conditions: c terminus: a fixed tail appended.
For the variant VAHLKHLSASQKALKEKEKASWSS, the protein stability index turned out to be 2.88. Regarding VAHFKHLSASQKALKEKEKASWSS, the protein stability index worked out at 2.83. In the case of VAHCKHLSASQKALKEKEKASWSS, the protein stability index stood at 3.34. VAHGKHLSASQKALKEKEKASWSS: the protein stability index came out at 3.47.

Take VAHQKHLSASQKALKEKEKASWSS: the protein stability index was found to be 2.73. For VAHEKHLSASQKALKEKEKASWSS, the protein stability index turned out to be 3.71. Turning to VAHHKHLSASQKALKEKEKASWSS, the protein stability index was 3.74. For VAHMKHLSASQKALKEKEKASWSS, the protein stability index stood at 3.55.

As for VAHTKHLSASQKALKEKEKASWSS, the protein stability index came out at 4.15. With VAHSKHLSASQKALKEKEKASWSS, the protein stability index is 3.35.

On to VAHNKHLSASQKALKEKEKASWSS, for which the protein stability index was found to be 3.64.

For VAHWKHLSASQKALKEKEKASWSS, the protein stability index was determined as 3.25. Regarding VAHYKHLSASQKALKEKEKASWSS, the protein stability index was 3.27. With VAHRKHLSASQKALKEKEKASWSS, the protein stability index is 2.91.

As to VAHKKHLSASQKALKEKEKASWSS, the protein stability index amounted to 3.48.

For VAHDKHLSASQKALKEKEKASWSS, the protein stability index was found to be 3.45. Same read-out and setting: the figure for VAHAKHLSASQKALKEKEKASWSS is 4.1; for VAHIKHLSASQKALKEKEKASWSS it is 3.03.

Regarding VTHVKHLSASQKALKEKEKASWSS, the protein stability index worked out at 3.86. Same read-out and setting: for VWHVKHLSASQKALKEKEKASWSS the value was 2.92; for VEHVKHLSASQKALKEKEKASWSS, 3.77; for VQHVKHLSASQKALKEKEKASWSS, 3.46. Same read-out and setting: the figure for VDHVKHLSASQKALKEKEKASWSS is 3.6.

Take VKHVKHLSASQKALKEKEKASWSS: the protein stability index was found to be 3.02.

As for VGHVKHLSASQKALKEKEKASWSS, the protein stability index was 3.29. For VNHVKHLSASQKALKEKEKASWSS, the protein stability index was 2.81. The same measure, in the same setting: for VFHVKHLSASQKALKEKEKASWSS the value was 2.23; for VRHVKHLSASQKALKEKEKASWSS, 2.77; for VMHVKHLSASQKALKEKEKASWSS, 3.19. For VLHVKHLSASQKALKEKEKASWSS, the protein stability index came to 3.38.

As for VIHVKHLSASQKALKEKEKASWSS, the protein stability index was 2.29. Still for that read-out and setting: for VCHVKHLSASQKALKEKEKASWSS the value was 3.44; for VYHVKHLSASQKALKEKEKASWSS, 2.3; for VPHVKHLSASQKALKEKEKASWSS, 3.77.

As for VHHVKHLSASQKALKEKEKASWSS, the protein stability index is 3.72.

As to VSHVKHLSASQKALKEKEKASWSS, the protein stability index was found to be 3.25.

In the case of VVHVKHLSASQKALKEKEKASWSS, the protein stability index was found to be 2.72. As for VAHVIHLSASQKALKEKEKASWSS, the protein stability index worked out at 2.4.

For the variant VAHVRHLSASQKALKEKEKASWSS, the protein stability index came out at 2.65. Same read-out and setting: for VAHVGHLSASQKALKEKEKASWSS the value was 3.88. Still for that read-out and setting: the figure for VAHVAHLSASQKALKEKEKASWSS is 3.67; for VAHVCHLSASQKALKEKEKASWSS it is 2.61; for VAHVFHLSASQKALKEKEKASWSS it is 2.45.

As for VAHVNHLSASQKALKEKEKASWSS, the protein stability index was found to be 3.45. On the same count and under the same terms, for VAHVLHLSASQKALKEKEKASWSS the value was 3.28; for VAHVHHLSASQKALKEKEKASWSS, 2.93. Still for that read-out and setting: the figure for VAHVEHLSASQKALKEKEKASWSS is 3.69; for VAHVMHLSASQKALKEKEKASWSS it is 2.78. On the same count and under the same terms, the figure for VAHVQHLSASQKALKEKEKASWSS is 3.12. Turning to VAHVDHLSASQKALKEKEKASWSS, the protein stability index was 3.27.

As to VAHVSHLSASQKALKEKEKASWSS, the protein stability index is 3.72. For the variant VAHVPHLSASQKALKEKEKASWSS, the protein stability index was found to be 3.64.

With RAHVKHLSASQKALKEKEKASWSS, the protein stability index is 3.83.

Turning to PAHVKHLSASQKALKEKEKASWSS, the protein stability index was determined as 3.53. Still for that read-out and setting: the figure for SAHVKHLSASQKALKEKEKASWSS is 3.73; for AAHVKHLSASQKALKEKEKASWSS it is 3.05; for LAHVKHLSASQKALKEKEKASWSS it is 2.95. With KAHVKHLSASQKALKEKEKASWSS, the protein stability index came to 3.57. Consider GAHVKHLSASQKALKEKEKASWSS, for which the protein stability index turned out to be 4.06.

With QAHVKHLSASQKALKEKEKASWSS, the protein stability index turned out to be 4.05. The same measure, in the same setting: for NAHVKHLSASQKALKEKEKASWSS the value was 3.96; for YAHVKHLSASQKALKEKEKASWSS, 2.7. The same measure, in the same setting: for EAHVKHLSASQKALKEKEKASWSS the value was 3.79; for CAHVKHLSASQKALKEKEKASWSS, 3.06; for MAHVKHLSASQKALKEKEKASWSS, 3.05. TAHVKHLSASQKALKEKEKASWSS: the protein stability index worked out at 4.03. Still for that read-out and setting: for HAHVKHLSASQKALKEKEKASWSS the value was 3.25; for DAHVKHLSASQKALKEKEKASWSS, 3.98. Take IAHVKHLSASQKALKEKEKASWSS: the protein stability index was 3.35.

Regarding FAHVKHLSASQKALKEKEKASWSS, the protein stability index stood at 2.34. On the same count and under the same terms, for WAHVKHLSASQKALKEKEKASWSS the value was 2.41; for VATVKHLSASQKALKEKEKASWSS, 3.77.

On to VACVKHLSASQKALKEKEKASWSS, for which the protein stability index amounted to 2.75.

For the variant VANVKHLSASQKALKEKEKASWSS, the protein stability index is 4.5. Consider VASVKHLSASQKALKEKEKASWSS, for which the protein stability index was found to be 3.27. On the same count and under the same terms, the figure for VAQVKHLSASQKALKEKEKASWSS is 3.28; for VAMVKHLSASQKALKEKEKASWSS it is 3.43. The same measure, in the same setting: the figure for VAGVKHLSASQKALKEKEKASWSS is 3.22; for VAFVKHLSASQKALKEKEKASWSS it is 2.52. Same read-out and setting: for VARVKHLSASQKALKEKEKASWSS the value was 3.19; for VAIVKHLSASQKALKEKEKASWSS, 2.58; for VAAVKHLSASQKALKEKEKASWSS, 3.44.

On to VAVVKHLSASQKALKEKEKASWSS, for which the protein stability index stood at 3.13.

Turning to VAPVKHLSASQKALKEKEKASWSS, the protein stability index was 3.73. Same read-out and setting: for VALVKHLSASQKALKEKEKASWSS the value was 2.6; for VAYVKHLSASQKALKEKEKASWSS, 2.7; for VAKVKHLSASQKALKEKEKASWSS, 3.16. Same read-out and setting: for VADVKHLSASQKALKEKEKASWSS the value was 4.11. With VAWVKHLSASQKALKEKEKASWSS, the protein stability index came to 2.1. Take VAEVKHLSASQKALKEKEKASWSS: the protein stability index turned out to be 4.11.

Variants of B2 are the subject of another data set. The description is as above. Conditions: c terminus: a fixed tail appended.
Take AFTMAENLANCERLIEVEDNMVMG: the protein stability index amounted to 3.03.

In the case of AFTMAENLANCERLIEVEDIMVMG, the protein stability index was 2.03.

With AFTMAENLANCERLIEVEDAMVMG, the protein stability index amounted to 2.42. On the same count and under the same terms, the figure for AFTMAENLANCERLIEVEDHMVMG is 2.98.
